Laboratory results published in patent US20160152733A1.
Residue numbers refer to the chain shown, from its start. Each block holds one binder with its values, some of them ahead of it.

Legend:
[1] = target: human CD45R0 antigen (splice variant/isoform CD45R0 of CD45 antigen, PTPRC), cell-bound (human) (UniProt P08575); assay: flow cytometry on human PBMC, from max. MFI; muCD45R0 set to 100%
[2] = target: human CD45R0 antigen (splice variant/isoform CD45R0 of CD45 antigen, PTPRC), cell-bound (human) (UniProt P08575); assay: flow cytometry, indirect staining of human PBMC, Fab 1-10 µg/mL + anti-His-PE
[3] = target: human CD45R0 antigen (splice variant/isoform CD45R0 of CD45 antigen, PTPRC), cell-bound (human) (UniProt P08575); assay: flow cytometry on human PBMC, from median fluorescence at 5 µg/mL; muCD45R0 set to 100%
[4] = target: human CD45R0 antigen (splice variant/isoform CD45R0 of CD45 antigen, PTPRC), cell-bound (human) (UniProt P08575); assay: flow cytometry, human PBMC gated on living CD45RA-negative WBC, Fab 5 µg/mL + anti-His-PE
[5] = target: human CD45R0 antigen (splice variant/isoform CD45R0 of CD45 antigen, PTPRC), cell-bound (human) (UniProt P08575); assay: flow cytometry on human T cells, from median fluorescence at 5 µg/mL; muCD45R0 set to 100%
[6] = target: human CD45R0 antigen (splice variant/isoform CD45R0 of CD45 antigen, PTPRC), cell-bound (human) (UniProt P08575); assay: flow cytometry, biotinylated Fab 5 µg/mL on human CD3+ CD45RA- T cells, donor 1 (text: anti-Biotin-PE; table head: anti-HIS-PE)
[7] = target: human CD45R0 antigen (splice variant/isoform CD45R0 of CD45 antigen, PTPRC), cell-bound (human) (UniProt P08575); assay: flow cytometry, biotinylated Fab 5 µg/mL on human CD3+ CD45RA- T cells, donor 2 (text: anti-Biotin-PE; table head: anti-HIS-PE)
[8] = target: human CD45R0 antigen (splice variant/isoform CD45R0 of CD45 antigen, PTPRC), cell-bound (human) (UniProt P08575); assay: flow cytometry on human PBMC, from median fluorescence at 5 µg/mL; relative to muCD45R0 = 100%
[9] = target: human CD45R0 antigen (splice variant/isoform CD45R0 of CD45 antigen, PTPRC), cell-bound (human) (UniProt P08575); assay: flow cytometry on human PBMC, from max. MFI; relative to muCD45R0 = 100%

median fluorescence (anti-HIS PE) [4]: 43
relative affinity (%) [8]: 165%
median fluorescence, donor 1 [6]: 9.5
median fluorescence, donor 2 [7]: 24
B2: Fab variant "huCD45R0_v3" (humanized, germline IGHV2-5*01 / IGKV2-30*01 framework with backmutations) (Fab, V domains shown, not shown: small tags and cut ends)
VH: QITLKESGPTLVKPTQTLTLTCTFSGFSLTTYGIGVGWIRQPPGKALEWLTHIWWNDNKYYSPSLKSRLTITKDSSKNQVVLTMTNMDPVDTATYYCLYGYTYWGQGTLVTVSA
VL: DVVMTQTPLSLPVTLGQPASISCRSSQSLLYSNGNTYLHWYQQRPGQSPRLLIYKLSNRFSGVPDRFSGSGSGTDFTLKISRVEAEDVGVYYCSQSTHVPWTFGGGTKLEIKR

relative affinity (%) [9]: 8%
max. mean fluorescence (anti-HIS-PE) [2]: 3
B3: Fab variant "huCD45R0_v1" (humanized, 4D5 framework with backmutations) (Fab, V domains shown, not shown: small tags and cut ends)
VH: EVQLVESGGGLVQPGGSLRLSCAFSGFSLTTYGIGVGWIRQAPGKGLEWLTHIWWNDNKYYADSVKGRFTISKDSSKNTVYLQMNSLRAEDTAVYYCLYGYTYWGQGTLVTVSS
VL: DIQMTQSPSSLSASVGDRVTITCRSSQSLLYSNGNTYLHWYQQKPGKAPKLLIYKLSNRFSGVPSRFSGSRSGTDFTLTISSLQPEDFATYYCSQSTHVPWTFGQGTKVEIKR

The next lines start with the binder.

B1: Fab variant "muCD45R0" (chimeric Fab: variable regions of parental murine CD45R0 antibody clone UCHL1, human constant regions) (Fab, V domains shown, not shown: small tags and cut ends)
VH: QITLKESGPGILQPSQTLSLTCSFSGFSLTTYGIGVGWIRQPPGKGLEWLTHIWWNDNKYYNTALRSRLTISKDSSNNQVLLKIANVDTADTATYYCLYGYTYWGQGTLVTVSA
VL: B2 VL with T14S, Q17D, P18Q, Q42L, R44K, R50K, V88L, Y92F
relative affinity (%) [1]: 100%
max. mean fluorescence (anti-HIS-PE) [2]: 37
relative affinity (%) [3]: 100%
median fluorescence (anti-HIS PE) [4]: 26
relative affinity (%) [5]: 100%
median fluorescence, donor 1 [6]: 8
median fluorescence, donor 2 [7]: 21

B4: Fab variant "huCD45R0_v2" (humanized, 4D5 framework with extended backmutations) (Fab, V domains shown, not shown: small tags and cut ends)
VH: B3 VH with E1Q, V2I, K66R
VL: B3 VL with I2V, Q3V, S7T, T22S, S65D, R71G
median fluorescence (anti-HIS PE) [4]: 8
relative affinity (%) [8]: 31%
